Laboratory results: patent publication US20260226179A1 (MAB DESIGNS, published 2026)
Positions count from the first letter of the chain named. Values joined by “and” are separate entries in the source; they are usually repeats but may differ in a detail not shown here. Equal values may be shown once.

T1: human membrane-bound IL-6R subunit alpha (human, UniProt P08887 20-468)
T1 sequence: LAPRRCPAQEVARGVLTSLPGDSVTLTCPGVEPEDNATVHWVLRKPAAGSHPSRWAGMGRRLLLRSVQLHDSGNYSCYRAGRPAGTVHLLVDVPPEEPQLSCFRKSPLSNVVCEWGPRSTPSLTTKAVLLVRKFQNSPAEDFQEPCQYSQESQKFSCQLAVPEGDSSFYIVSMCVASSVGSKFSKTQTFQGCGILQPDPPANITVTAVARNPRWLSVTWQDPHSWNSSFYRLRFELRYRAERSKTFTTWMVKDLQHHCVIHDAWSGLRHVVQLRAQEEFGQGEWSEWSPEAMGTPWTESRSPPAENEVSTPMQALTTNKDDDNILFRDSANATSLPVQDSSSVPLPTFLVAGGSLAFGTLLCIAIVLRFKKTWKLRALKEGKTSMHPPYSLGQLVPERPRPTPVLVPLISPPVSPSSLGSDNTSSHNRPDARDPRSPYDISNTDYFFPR

T2: human soluble IL-6R (human, UniProt P08887 20-357)
T2 sequence: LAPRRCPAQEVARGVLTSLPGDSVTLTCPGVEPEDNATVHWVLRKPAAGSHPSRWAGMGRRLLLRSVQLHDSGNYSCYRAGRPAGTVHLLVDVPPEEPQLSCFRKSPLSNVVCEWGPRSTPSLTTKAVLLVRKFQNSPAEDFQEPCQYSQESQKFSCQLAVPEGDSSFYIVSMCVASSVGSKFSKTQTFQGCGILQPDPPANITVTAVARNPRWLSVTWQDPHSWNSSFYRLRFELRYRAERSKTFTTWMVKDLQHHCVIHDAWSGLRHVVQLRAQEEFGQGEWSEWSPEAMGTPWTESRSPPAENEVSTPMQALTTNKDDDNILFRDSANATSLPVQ

T3: human soluble IL-6R (human, UniProt P08887 20-357, limits assumed)
T3 sequence: T2 sequence

B1: candidate anti-IL-6R Fab clone 12 (Fab, V domains shown)
VH: EVKLMESGGGLVQPGGSLKLSCAASGFTFSNYGMSWVRQTPDKRLEWVANINSNGGSTYYPDSVKGRFTISRDNAQNTLYLQMSSLKSEDTAMYYCTRDGNFVSDYWGQGTTLTVSS
VL: DIVLTQSPASLAVSPGQRATISCRASESVDSYGNSFMNWYQQKPGQPPKLLIYLASNLESGVPARFSGSGSRTDFTLTIDPVEADDAATYYCQQNNEDPYTFGGGTKLEIK
B2: candidate anti-IL-6R Fab clone 19 (Fab, V domains shown)
VH: EVKLMESGGGLVQPGGSLKLSCAASGFTFSNYGMSWVRQTPDKRLELVAIMNSKGGSTYYPDSVMGRFTISRDNAKNTLYLQMSSLKSEDTAMYYCARDGYYTMDYWGQGTSVTVSS
VL: B1 VL with P15L, E27K, Y32F, N38H, P47S, K49R, Y53F
B3: candidate anti-IL-6R Fab clone 07 (Fab, V domains shown)
VH: B2 VH with M5V, N31S, G33A, P41A, I50N, M51I, K54N, M65K, Y80F, D99E
VL: B1 VL
B4: candidate anti-IL-6R Fab clone 20 (Fab, V domains shown)
VH: B1 VH with W47L, N50I, Q76K, M93I, T97A
VL: B1 VL with P15L, S35R, M37L
B5: anti-IL-6R Fab C20 (purified Fab fragment of C20) (Fab, V domains shown)
VH: B1 VH with W47L, N50I, Q76K, M93I, T97A
VL: B1 VL with P15L, S35R, M37L

What follows are binders tested against T1, human membrane-bound IL-6R subunit alpha (assay: cell-based or functional assay).
In the case of B1, the “Proliferation in % (Ba/F3_gp130_IL-6R cells, IL-6 + sIL-6R = 100%; combined IL-6 classical and trans signalling; 1% PE)” value is reported as 61.6%.
B2 was tested, and the “Proliferation in % (Ba/F3_gp130_IL-6R cells, IL-6 + sIL-6R = 100%; combined IL-6 classical and trans signalling; 1% PE)” value was 73.3%.
B3 was tested, and the “Proliferation in % (Ba/F3_gp130_IL-6R cells, IL-6 + sIL-6R = 100%; combined IL-6 classical and trans signalling; 1% PE)” value was 86.1%.
B4 was tested, and the “Proliferation in % (Ba/F3_gp130_IL-6R cells, IL-6 + sIL-6R = 100%; combined IL-6 classical and trans signalling; 1% PE)” value was 81.9%.

What follows are binders tested against T2, human soluble IL-6R (assay: cell-based or functional assay).
B1 was tested, and the “Classical:trans signalling ratio proliferation” value was 1.3 ratio.
With B2 the “Classical:trans signalling ratio proliferation” value was 1.4 ratio.
For B3, the “Classical:trans signalling ratio proliferation” value was 1.5 ratio.
B4 was tested, and the “Classical:trans signalling ratio proliferation” value was 2.2 ratio.

Each binder was assayed against T3, human soluble IL-6R (assay: cell-based or functional assay).
In the case of B5, the “IC50 of inhibition of proliferation of Ba/F3_gp130 cells induced by 10 ng/ml IL-6 and 200 ng/ml sIL-6R” value is reported as 159 ng/ml and 3.2 nM.

These binders were tested against Hyper-IL-6 (recombinant fusion protein consisting of IL-6 and soluble IL-6R) (assay: cell-based or functional assay).
B5 was tested, and the “IC50 of inhibition of proliferation of Ba/F3_gp130 cells induced by 28 ng/ml Hy-IL-6” value was 98 ng/ml and 1.9 nM.

Target: T2, human soluble IL-6R
Test: cell-based or functional assay
Remark: another data set of the same source
B1 was tested, and the “Proliferation in % (Ba/F3_gp130 cells, IL-6 + sIL-6R = 100%; IL-6 trans signalling; 1% PE)” value was 47.9%.
In the case of B2, the “Proliferation in % (Ba/F3_gp130 cells, IL-6 + sIL-6R = 100%; IL-6 trans signalling; 1% PE)” value is reported as 53.3%.
With B3 the “Proliferation in % (Ba/F3_gp130 cells, IL-6 + sIL-6R = 100%; IL-6 trans signalling; 1% PE)” value was 55.7%.
In the case of B4, the “Proliferation in % (Ba/F3_gp130 cells, IL-6 + sIL-6R = 100%; IL-6 trans signalling; 1% PE)” value is reported as 36.6%.

Target: T2, human soluble IL-6R
Test: cell-based or functional assay
Remark: another data set of the same source
B1 was tested, and the “Classical:trans signalling ratio intracellular signalling” value was 2.1 ratio and the “Residual STAT3 phosphorylation in HEK293 (IL-6 + sIL-6R; IL-6 trans signalling; 1% PE)” value was 42%.
With B2 the “Classical:trans signalling ratio intracellular signalling” value was 3 ratio and the “Residual STAT3 phosphorylation in HEK293 (IL-6 + sIL-6R; IL-6 trans signalling; 1% PE)” value was 24%.
With B3 the “Classical:trans signalling ratio intracellular signalling” value was 2.8 ratio and the “Residual STAT3 phosphorylation in HEK293 (IL-6 + sIL-6R; IL-6 trans signalling; 1% PE)” value was 28%.
For B4, the “Classical:trans signalling ratio intracellular signalling” value was 3 ratio and the “Residual STAT3 phosphorylation in HEK293 (IL-6 + sIL-6R; IL-6 trans signalling; 1% PE)” value was 32%.

Target: T1, human membrane-bound IL-6R subunit alpha
Test: cell-based or functional assay
Remark: another data set of the same source
In the case of B1, the “Residual STAT3 phosphorylation in HEK293_IL-6R (IL-6 + sIL-6R; combined classical and trans signalling; 1% PE)” value is reported as 90%.
With B2 the “Residual STAT3 phosphorylation in HEK293_IL-6R (IL-6 + sIL-6R; combined classical and trans signalling; 1% PE)” value was 72%.
For B3, the “Residual STAT3 phosphorylation in HEK293_IL-6R (IL-6 + sIL-6R; combined classical and trans signalling; 1% PE)” value was 77%.
For B4, the “Residual STAT3 phosphorylation in HEK293_IL-6R (IL-6 + sIL-6R; combined classical and trans signalling; 1% PE)” value was 97%.
